Article PMC7093453

Assays:
[1] = target: RCC: Rba. sphaeroides reaction centre with SpyCatcherΔ attached directly to the N-terminus of PufL (Rhodobacter sphaeroides) (UniProt P0C0Y9)
[2] = target: wild-type (WT) reaction centre (RC) of Rhodobacter sphaeroides (Rhodobacter sphaeroides) (UniProt P0C0Y8)
[3] = target: RCC: Rba. sphaeroides reaction centre with SpyCatcherΔ attached directly to the N-terminus of PufL (Rhodobacter sphaeroides) (UniProt P0C0Y9); remark: listed apart in the source
[4] = target: RC4C: Rba. sphaeroides reaction centre with SpyCatcherΔ attached to the N-terminus of PufL via a four residue linker (Rhodobacter sphaeroides) (UniProt P0C0Y9)

Work on “LHCI-Td: A. thaliana LHCI heterodimer of unadapted Lhca1 (L1) and SpyTagΔ-adapted Lhca4 (Td-L4) (from UniProt Q01667 36-241) (complex)” yielded an E (P870): apparent energy transfer efficiency from the rate of RC P870 photobleaching (650 nm excitation), LHCI#RC chimera in solution [1] of 20.2%, an EFL: apparent energy transfer efficiency from quenching of LHC emission, LHCI#RC chimera in solution [1] of 20.7% and an E (P870): apparent energy transfer efficiency from the rate of RC P870 photobleaching (650 nm excitation), mixture in solution [2] of 1.3%. The EFL: apparent energy transfer efficiency from quenching of LHC emission, mixture in solution [2] was 10.3% and the Ea4: apparent energy transfer efficiency for the LHCI#RC chimera, from E (P870) [3] was 20.1%.

Substance “LHCII-T: full SpyTag sequence added to the C-terminus of the full A. thaliana Lhcb1” has an E (P870): apparent energy transfer efficiency from the rate of RC P870 photobleaching (650 nm excitation), LHCII#RC chimera in solution [1] of 22.8%, an EFL: apparent energy transfer efficiency from quenching of LHC emission, LHCII#RC chimera in solution [1] of 19.6% and an E (P870): apparent energy transfer efficiency from the rate of RC P870 photobleaching (650 nm excitation), mixture in solution [2] of 1.2%. It also gave an EFL: apparent energy transfer efficiency from quenching of LHC emission, mixture in solution [2] of 0.8%.

Substance “Td-LHCI-Td: A. thaliana LHCI heterodimer of SpyTagΔ-adapted Lhca1 (Td-L1) and SpyTagΔ-adapted Lhca4 (Td-L4) (complex)” has an E (P870): apparent energy transfer efficiency from the rate of RC P870 photobleaching (650 nm excitation), RC#LHCI#RC chimera in solution [1] of 29.1%, an EFL: apparent energy transfer efficiency from quenching of LHC emission, RC#LHCI#RC chimera in solution [1] of 27.4% and an E (P870): apparent energy transfer efficiency from the rate of RC P870 photobleaching (650 nm excitation), mixture in solution (molar ratio of RC to LHC two) [2] of 3.3%. For the same substance, the EFL: apparent energy transfer efficiency from quenching of LHC emission, mixture in solution [2] was 9.3%, the Ea1: efficiency of energy transfer to the Lhca1-connected RC in the RC#LHCI#RC chimera, from E (P870) (Eq. 5) [3] was 13.9% and the Ea1: efficiency of energy transfer to the Lhca1-connected RC in the RC#LHCI#RC chimera, from EFL (Eq. 5) [3] was 10.4%.

“Td-dLHCII: SpyTagΔ added to the N-terminus of the truncated A. thaliana Lhcb1” showed an E (P870): apparent energy transfer efficiency from the rate of RC P870 photobleaching (650 nm excitation), RC#LHCII chimera in solution [4] of 21% and an EFL: apparent energy transfer efficiency from quenching of LHC emission, RC#LHCII chimera in solution [4] of 20.3%.
